The target in one test is insulin receptor (UniProt P06213-2 28-944, limits assumed). The test is described as follows: not described.
The target in another test is T1, VEGF (human, UniProt P15692-4 27-191).
T1 construct: also called human VEGF
The test is described as follows: ELISA, human VEGF coated (30 ng/ml), sample diluted in 3.876 ug/ml biotinylated Ang2, detection with HRP anti-human kappa chain mAb, A450. The method, then:
Ninety-six-well plates were coated overnight with human VEGF (PeproTech, Inc. cat#100-20) at 30 ng/ml (100 μl/well). […] After washing (8×300 μl wash buffer), parallel samples received either HRP-conjugated anti-human kappa chain mAb (Abeam, cat # ab79115) diluted 1:1000 in Blocking buffer or HRP-conjugated streptavidin (Thermo Scientific cat#N100) diluted 1:4000 diluted in Blocking buffer. After incubation for 1 hour at RT, wells were washed (8×300 μl wash buffer) prior to receiving 100 μl of TMB substrate (KPL Laboratories). Color development was stopped with 100 μl of H₂SO₄, and absorbance was read at 450 nm.

In test [1] the target is T2, angiopoietin-2 (Ang2) (human, UniProt O15123 68-496, limits assumed).
T2 construct: Plain and biotinylated Ang2 are kept as one molecule; also called rhAng2; recombinant Ang2
T2 sequence (looked up): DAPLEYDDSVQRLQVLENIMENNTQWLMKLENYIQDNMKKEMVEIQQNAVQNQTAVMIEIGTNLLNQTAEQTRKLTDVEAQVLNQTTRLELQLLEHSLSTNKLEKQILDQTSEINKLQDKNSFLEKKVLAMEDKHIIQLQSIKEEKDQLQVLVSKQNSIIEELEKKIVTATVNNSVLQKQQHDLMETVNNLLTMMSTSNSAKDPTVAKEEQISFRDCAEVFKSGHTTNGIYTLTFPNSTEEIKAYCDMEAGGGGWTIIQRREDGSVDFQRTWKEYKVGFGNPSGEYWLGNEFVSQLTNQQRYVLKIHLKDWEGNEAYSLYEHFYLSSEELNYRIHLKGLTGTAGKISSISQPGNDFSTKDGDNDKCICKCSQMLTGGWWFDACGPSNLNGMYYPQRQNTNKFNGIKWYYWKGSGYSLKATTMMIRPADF
The test is described as follows: ELISA on rhAng2-coated wells, MRD-MBP fusion, anti-MBP detection; EC50 by 4 parameter fit. How it is done:
MBP fusion proteins were serially diluted in Blocking buffer and added to wells for 2 hours at RT. After washing (8×300 μl wash buffer), samples were treated with HRP-mouse anti MBP mAb (NEB, cat # E8038S), diluted 1:4000 in Blocking buffer. After incubation for 1 hour at RT, wells were washed (8×300 μl wash buffer) prior to receiving 100 μl of TMB substrate (KPL Laboratories). Color development was stopped with 100 μl of H₂SO₄, and absorbance was read at 450 nm.
Bound fusion proteins were detected with anti-MBP mAb. Assayed proteins represent mutational variants of the sequence […] […] (L17D) (SEQ ID NO:107). In this series, the motif MDD within L17D was mutated at the first D to all other possible amino acids (except cysteine). Other MRDs tested were “Lm32 KtoS” and a dimer of Lm32 (2×Lm32).

The target in test [2] is T3, insulin-like growth factor-I receptor (IGF1R) (UniProt P08069 31-932, limits assumed).
T3 construct: also called immobilized IGF-1R
The test is described as follows: ELISA, coated antigen, absorbance at 405 nm, one condition per construct, BSA-coated wells as control; the bar labelled Antigen is the antigen of the MRD of the construct, here IGF1R (RP).

The target of test [3] is T2, angiopoietin-2 (Ang2). The test is described as follows: binding of MBP fusion to Ang2.
Another test addresses T4, integrin αvβ3 (UniProt P06756 31-992; P05106 27-718, limits assumed).
T4 construct: Antigen of the ELISAs
Put plainly: ELISA, coated antigen, absorbance at 405 nm, one condition per construct, BSA-coated wells as control; the bar labelled Antigen is the antigen of the MRD of the construct, here integrin avb3.

Where no end group is shown, it is not given here. MBP = maltose binding protein (MBP), fused to the peptide

Chain of insulin receptor (P06213 other isoform, or with tags, fused parts or gaps limits assumed): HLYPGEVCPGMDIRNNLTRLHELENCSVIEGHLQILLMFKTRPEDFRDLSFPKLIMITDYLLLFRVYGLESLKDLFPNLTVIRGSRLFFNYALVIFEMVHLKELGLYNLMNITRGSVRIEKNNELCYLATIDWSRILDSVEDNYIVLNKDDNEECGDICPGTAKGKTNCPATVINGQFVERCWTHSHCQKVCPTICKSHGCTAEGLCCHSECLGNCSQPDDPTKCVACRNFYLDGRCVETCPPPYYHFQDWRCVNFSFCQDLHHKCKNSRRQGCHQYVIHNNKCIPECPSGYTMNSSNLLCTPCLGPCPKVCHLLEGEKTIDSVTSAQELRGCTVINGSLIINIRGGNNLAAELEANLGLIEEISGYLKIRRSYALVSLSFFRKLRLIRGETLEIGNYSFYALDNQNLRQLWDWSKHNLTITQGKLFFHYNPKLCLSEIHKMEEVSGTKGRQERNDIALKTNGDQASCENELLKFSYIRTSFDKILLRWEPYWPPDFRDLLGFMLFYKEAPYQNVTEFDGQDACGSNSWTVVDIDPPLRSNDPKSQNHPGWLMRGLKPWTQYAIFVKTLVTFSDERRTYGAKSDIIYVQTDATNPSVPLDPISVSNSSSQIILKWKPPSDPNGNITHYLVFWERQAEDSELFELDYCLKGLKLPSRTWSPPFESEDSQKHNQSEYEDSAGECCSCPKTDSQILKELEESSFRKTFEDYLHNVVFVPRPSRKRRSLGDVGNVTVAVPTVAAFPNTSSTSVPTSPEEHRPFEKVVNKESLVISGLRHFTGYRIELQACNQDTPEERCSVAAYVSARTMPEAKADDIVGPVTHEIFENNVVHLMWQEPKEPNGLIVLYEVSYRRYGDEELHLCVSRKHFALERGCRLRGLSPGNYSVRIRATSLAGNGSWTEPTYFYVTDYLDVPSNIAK
T4 sequence (P06756 31-992 limits assumed, chain 1 of 2): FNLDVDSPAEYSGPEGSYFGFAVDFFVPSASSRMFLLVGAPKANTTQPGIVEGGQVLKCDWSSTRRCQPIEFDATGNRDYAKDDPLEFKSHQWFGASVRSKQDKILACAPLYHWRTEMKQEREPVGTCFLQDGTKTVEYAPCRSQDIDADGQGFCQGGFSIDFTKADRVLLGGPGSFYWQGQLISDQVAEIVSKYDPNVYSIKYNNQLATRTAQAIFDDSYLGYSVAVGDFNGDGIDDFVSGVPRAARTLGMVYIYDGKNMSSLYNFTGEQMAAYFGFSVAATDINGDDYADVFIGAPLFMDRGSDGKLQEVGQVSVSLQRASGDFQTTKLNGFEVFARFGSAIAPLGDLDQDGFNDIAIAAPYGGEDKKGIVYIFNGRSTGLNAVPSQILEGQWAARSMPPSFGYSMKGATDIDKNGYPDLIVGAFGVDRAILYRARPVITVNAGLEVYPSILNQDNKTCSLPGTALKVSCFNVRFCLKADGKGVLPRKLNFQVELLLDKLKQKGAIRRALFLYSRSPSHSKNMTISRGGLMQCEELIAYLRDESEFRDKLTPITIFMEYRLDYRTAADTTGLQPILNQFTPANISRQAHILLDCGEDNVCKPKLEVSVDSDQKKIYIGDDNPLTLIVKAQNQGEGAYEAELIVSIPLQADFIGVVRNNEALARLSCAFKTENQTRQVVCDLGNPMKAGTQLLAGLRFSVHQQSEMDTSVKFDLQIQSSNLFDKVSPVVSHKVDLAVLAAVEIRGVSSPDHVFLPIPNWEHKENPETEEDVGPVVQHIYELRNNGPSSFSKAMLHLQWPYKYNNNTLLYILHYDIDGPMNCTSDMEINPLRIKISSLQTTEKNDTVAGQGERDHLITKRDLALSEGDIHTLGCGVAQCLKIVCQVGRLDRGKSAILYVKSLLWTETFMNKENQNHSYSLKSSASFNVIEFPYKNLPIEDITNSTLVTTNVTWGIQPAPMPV
T4 sequence (P05106 27-718 limits assumed, chain 2 of 2): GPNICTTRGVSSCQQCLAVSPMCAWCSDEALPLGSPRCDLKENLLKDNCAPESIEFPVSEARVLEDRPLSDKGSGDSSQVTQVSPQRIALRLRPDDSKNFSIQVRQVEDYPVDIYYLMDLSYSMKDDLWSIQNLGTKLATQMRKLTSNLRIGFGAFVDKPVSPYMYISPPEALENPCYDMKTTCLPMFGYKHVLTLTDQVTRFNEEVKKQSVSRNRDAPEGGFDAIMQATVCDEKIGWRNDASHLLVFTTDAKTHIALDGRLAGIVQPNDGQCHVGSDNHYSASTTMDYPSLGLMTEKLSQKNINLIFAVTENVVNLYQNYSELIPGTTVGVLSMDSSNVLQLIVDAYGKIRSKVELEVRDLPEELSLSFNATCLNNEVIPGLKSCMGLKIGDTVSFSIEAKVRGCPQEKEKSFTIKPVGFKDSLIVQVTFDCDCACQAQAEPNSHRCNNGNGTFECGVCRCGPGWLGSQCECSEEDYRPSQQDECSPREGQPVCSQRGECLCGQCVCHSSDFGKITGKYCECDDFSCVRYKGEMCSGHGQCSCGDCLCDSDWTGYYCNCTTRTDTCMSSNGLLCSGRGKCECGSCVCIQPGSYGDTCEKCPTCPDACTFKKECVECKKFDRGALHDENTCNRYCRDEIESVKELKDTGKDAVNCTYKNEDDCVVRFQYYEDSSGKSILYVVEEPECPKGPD
T1 sequence (P15692 other isoform, or with tags, fused parts or gaps limits assumed): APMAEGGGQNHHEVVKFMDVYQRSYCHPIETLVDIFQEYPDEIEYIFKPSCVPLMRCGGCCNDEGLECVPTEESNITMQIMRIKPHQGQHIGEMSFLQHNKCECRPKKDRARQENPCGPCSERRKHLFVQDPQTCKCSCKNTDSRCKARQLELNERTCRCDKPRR

B1: Rm4-415 (peptide)
peptide: NFYQCIELLSARPAEKSRGQWAECRAG
Take B1: the binding result in the test with insulin receptor was “no binding”.

B2: Rm4-417 (peptide)
peptide: NFYQCIEALARTPAEKSRGQWVECRAP
B2: in the test with insulin receptor, the binding result is listed as “no binding”.

B3: HER-lm32(H) (bispecific antibody, not shown: a dimerising Fc or GST)
heavy (part 1 of 2): not shown
heavy (part 2 of 2): KSLSLSPGKGGGSMGAQTNFMPMDNDELLLYEQFILQQGLE
VL: not shown
notes: also called HERCEPTIN-lm32 fusion; HERCEPTIN lm-32
B3: the binding result with VEGF was “no binding (tested: about 20 nM)”.

B4: Rm4-316 (peptide)
peptide: NFYQCIEALQSRPAEKSRGQWQECRTGG
As to B4, the binding result with insulin receptor is reported as “no binding”.

B5: Rm4-319 (peptide)
peptide: NFYQCIEALSRSPAEKSRGQWQECRTGG
Take B5: the binding result with insulin receptor is “no binding”.

B6: Rm4-314 (peptide)
peptide: NFYQCIEYLAMKPAEKSRGQWQECRTGG
For the molecule B6, in the test with insulin receptor, the binding result was “no binding”.

B7: Rm4-45 (peptide)
peptide: NFYQCIESLAGGPAEKSRGQWQECRTG
On to B7, for which, in the test with insulin receptor, the binding result was “no binding”.

B8: Rm4-411 (peptide)
peptide: NFYQCIEQLSSGPAEKSRGQWQECRTG
Take B8: the binding result in the test with insulin receptor is recorded as “no binding”.

B9: Lm32 KtoS-MBP fusion (other, not shown: small tags and cut ends)
peptide: {MBP}-PGSGGGSMGAQTNFMPMDNDELLLYEQFILQQGLE
modifications: also: N-terminal MBP fusion, not in chain
In turn, B9 had an EC50 with angiopoietin-2 (Ang2) [1] of 0.199 nM.

B10: Her-1L-RP (bispecific antibody, not shown: a dimerising Fc or GST)
light (part 1 of 2): not shown
light (part 2 of 2): SSGGGGSGGGGGGSSRSSSFYSCLESLVNGPAEKSRGQWDGCRKK
VH: not shown
notes: Her = HERCEPTIN
With B10, the binding result in test [2] is “no binding”.

B11: Rm4-310 (peptide)
peptide: NFYQCIERLVTGPAEKSRGQWQECRTGG
For B11, the binding result with insulin receptor is “no binding”.

B12: Rm4-33 (peptide)
peptide: NFYQCIEQLALRPAEKSRGQWQECRTGG
Consider B12, for which, in the test with insulin receptor, the binding result is listed as “no binding”.

B13: Rm4-46 (peptide)
peptide: NFYQCIEALVGVPAEKSRGQWQECRTG
Take B13: in the test with insulin receptor, the binding result is given as “no binding”.

B14: Rm4-31 (peptide)
peptide: NFYQCIEMLASHPAEKSRGQWQECRTGG
Turning to B14, the binding result in the test with insulin receptor is “no binding”.

B15: Rm4-39 (peptide)
peptide: NFYQCIDLLMAYPAEKSRGQWQECRTGG
For B15, the binding result with insulin receptor is “no binding”.

B16: MBP fusion of LM32 variant SEQ ID NO:32 (other, not shown: large carriers)
peptide: {MBP}-KSLSLSPGSGGGSMGAQTNFMPMDNDELLLYEQFI
modifications: also: N-terminal MBP fusion, not in chain
In the case of B16, in the test with angiopoietin-2 (Ang2) [3], the EC50 is 1.08 nM.

B17: MBP fusion of LM32 variant SEQ ID NO:33 (other, not shown: large carriers)
peptide: {MBP}-KSLSLSPGSGGGSMGAQTNFMPMDNEELLLYEQFI
modifications: also: N-terminal MBP fusion, not in chain
For B17, the 50% effective concentration (EC50) with angiopoietin-2 (Ang2) [3] is 20.7 nM.

B18: Rm4-49 (peptide)
peptide: NFYQCIEMLSLPPAEKSRGQWQECRTG
With B18, the binding result in the test with insulin receptor is listed as “no binding”.

B19: MBP fusion of LM32 variant SEQ ID NO:90 (other, not shown: large carriers)
peptide: {MBP}-KSLSLSPGSGGGSMGAQTNFMPMDNDEALLYEQFILQQGLE
modifications: also: N-terminal MBP fusion, not in chain
B19: the concentration giving a half-maximal response (EC50) in the test with angiopoietin-2 (Ang2) [3] amounted to 0.182 nM.

B20: MBP fusion of LM32 variant SEQ ID NO:94 (other, not shown: large carriers)
chain: {MBP}-KSLSLSPGSGGGSMGAQTNFMPMDNDEALLYEQFIYQQGLE
modifications: also: N-terminal MBP fusion, not in chain
With B20, the midpoint of the response with angiopoietin-2 (Ang2) [3], the EC50, lay at 0.392 nM.

B21: MBP fusion of LM32 variant SEQ ID NO:96 (other, not shown: large carriers)
chain: {MBP}-KSLSLSPGSGGGSMGAQTNFMPMDNDEGLLYEEFILQQGLE
modifications: also: N-terminal MBP fusion, not in chain
B21 had a 50% effective concentration (EC50) in the test with angiopoietin-2 (Ang2) [3] of 0.922 nM.

B22: MBP fusion of LM32 variant SEQ ID NO:93 (other, not shown: large carriers)
chain: {MBP}-KSLSLSPGSGGGSMGAQTNFMPMDNDEGLLYEQFIYQQGLE
modifications: also: N-terminal MBP fusion, not in chain
For B22, the response with angiopoietin-2 (Ang2) [3] was half-maximal at 0.902 nM (EC50).

B23: MBP fusion of LM32 variant SEQ ID NO:99 (other, not shown: large carriers)
chain: {MBP}-KSLSLSPGSGGGSMGAQTNFMPMDQDELLLYEQFILQQGLE
modifications: also: N-terminal MBP fusion, not in chain
B23 returned an EC50 with angiopoietin-2 (Ang2) [3] of 0.383 nM.

B24: MBP fusion of LM32 variant SEQ ID NO:97 (other, not shown: large carriers)
chain: {MBP}-KSLSLSPGSGGGSMGAQTNFMPMDNDEALLYEEFILQQGLE
modifications: also: N-terminal MBP fusion, not in chain
In turn, B24 came in with an EC50 with angiopoietin-2 (Ang2) [3] of 0.426 nM.

B25: MBP fusion of LM32 variant SEQ ID NO:91 (other, not shown: large carriers)
chain: {MBP}-KSLSLSPGSGGGSMGAQTNFMPMDNDELTLYEQFILQQGLE
modifications: also: N-terminal MBP fusion, not in chain
As to B25, in the test with angiopoietin-2 (Ang2) [3], the EC50 is 1.42 nM. Compared with the last molecule, the EC50 is about 3.3-fold higher.

B26: MBP fusion of LM32 variant SEQ ID NO:100 (other, not shown: large carriers)
chain: {MBP}-KSLSLSPGSGGGSMGAQTNFMPMDDDELLLYEQFILQQGLE
modifications: also: N-terminal MBP fusion, not in chain
In the case of B26, in the test with angiopoietin-2 (Ang2) [3], the midpoint of the response, the EC50, lay at 0.24 nM. This EC50 is about 5.9-fold lower than that of the molecule before.

B27: Rm4-410 (peptide)
peptide: NFYQCIEVFWGRPAEKSRGQWQECRTG
For the molecule B27, the binding result with insulin receptor is reported as “no binding”.

B28: Rm4-44 (peptide)
peptide: NFYQCIEHLSGSPAEKSRGQWQECRTG
B28: the binding result with insulin receptor is “no binding”.

B29: Her-sL-RGD4C (bispecific antibody, not shown: a dimerising Fc or GST)
light (part 1 of 2): not shown
light (part 2 of 2): GGGSCDCRGDCFC
VH: not shown
notes: Her = HERCEPTIN
For the molecule B29, the binding result with integrin αvβ3 is “no binding”.
